According to a protein production outcome set (Wang et al. 2014):

assay: label from the status in PepcDB records

**Q.** Which protein production does the source give for “LNLMMTPMLKVLATPERLAFGLKQMVSYLHANGVTAYMEPGALYTPDMWKLYEQILGAPETPMYATFIADGRGIVDRVGLDGALDAVEQQIAVAPEAPGRKLMFFPGQIKLFADGAIISQLMQMKDGYLDGHQGEWIIPPDELERRARLFWNAGYQIHTHVNGDLGLEKLLDILEKLNAEHPRPDHRSVIVHFANSTEDQVARIKRLGALVSANPYYTTGFADKYSAVGLGPERADAMVRAKSVLDQGVPLSYHSDLPMAPSAPLYLAWCGVNRLTPSGRVAGPEQRVSVDAALRAITIEAAYSWRHEDQ” here?
**A.** failed

**Q.** For “LNSSYVNGNTAGNLYNAGLFCESDGEVFFSNTNDNGRLYAMNIDGSNIHKLSNDTAMYINADKNYVYYVRNNNQKITSQTFFSYDRNSLCRIKRNGHGSTVLDPDPCIYASLIGNYIYYLHYDTQTATSLYRIRIDGEEKKKIKNHYLFTCNTSDRYFYYNNPKNGQLYRYDTASQSEALFYDCNCYKPVVLDDTNVYYMDVNRDNAIVHVNINNPNPVVLTEANIEHYNVYGSLIFYQRGGDNPALCVVKNDGTGFKELAKGEFCNINVTSQYVYFTDFVSNKEYCTSTQNPDTIKALQP”, which protein production is on record?
**A.** not failed

**Q.** With “LQCEICGFTCRQKASLNWHQRKHAETVAALRFPCEFCGKRFEKPDSVAAHRSKSHPALLLAPQES” as the sequence, how does the protein production read?
**A.** not failed

**Q.** Which protein production does the source give for “LQESEARFQAFMNNSPSASWITDDHGRMLYLSQTYVRTFQLPFDKVEDVTGKTVFELYTPEVAQPFLDNIHRVAQTQQILETIEKAPRLDGTLGDFLVYKFPLPATTGELFIGGVAVDISDKIRAEQALQKLNQELEAR” here?
**A.** not failed

**Q.** Which protein production does the source give for “LQSKLSLPKIPNVIECFDISHLSGTATVGSMVQFRGGRPDKHNYRRFKIESVEGIDDFASIAEVVRRRYSRLLEDKHEMPDLIIIDGGKGQLSSAFQELRKLRVKVPIISIAKREEEIYVPGLKSPLPIKKDEKASLFVQEIRDEAHRFAINYNRLLRQKALIQK” here?
**A.** failed

**Q.** For “LRGFVPSSVWLERGVFPPSNEEVIKLGLSPTSMVARLKRQRLADGVVMAIEMSTMPVAYLPDPQAVGTSLYAHLDATGHSVVRALQHIRAVNASGDVAQLAGIRPGEAMLLITRIGFNADNVAIELTDTYCRNDYYDFVAELKR”, which protein production is on record?
**A.** not failed

**Q.** With “LRSNRVTQHPPLQLSLPVHLPDDETFTSYYPAAGNDELIGALKSAASGDGVQAIYLWGPVKSGRTHLIHAACARANELERRSFYIPLGIHASISTALLEGLEQFDLICIDDVDAVAGHPLWEEAIFDLYNRVAEQKRGSLIVSASASPMEAGFVLPDLVSRMHWGLTYQLQPMMDDEKLAALQRRAAMRGLQLPEDVGRFLLNRMARDLRTLFDVLDRLDKASMVHQRKLTIPFVKEMLRL” as the sequence, how does the protein production read?
**A.** not failed

**Q.** Which protein production does the source give for “LRSPRLYTHRLILRPWLVQDRARFAELNADPLVMEFFPSCLDRAQSDALLRRIDAHFAEHGFGWWALQVKGGDPFIGYVGLEVVDFDAPFVPAVAIGWRLAAEHWAEGFAHEAAEAALSYAFDTLGLDQVVAFTVPANENSLGLMERLGMHRDPTDDFEHPDLPPGHRLRHHVLYRLTREDWLRR” here?
**A.** not failed

**Q.** With “LSDPNLVLFYVKNPAKSEEFYKNLLDTQPIESSPTFAMFVMKTGLRLGLWAQEEIEPKAHQTGGGMELSFQVNSNEMVDEIHRQWSDKEISIIQPPTQMDFGYTFVGVDPDEHRLRIFCLKRT” as the sequence, how does the protein production read?
**A.** not failed

**Q.** Which protein production does the source give for “LTLDLAPVTPKDAPLLHRVFHLSPSYFALIGMELPTLEDVVRDLQTLEVDPRRRAFLLFLGQEPVGYLDAKLGYPEAEDATLSLLLIREDHQGRGLGRQALERFAAGLDGVRRLYAVVYGHNPKAKAFFQAQGFRYVK” here?
**A.** not failed

**Q.** With “LTRWGAFRNITLPLALPGLAAAAMFTFVMSWNEVFVASILTLKNRTLPAQILSIVAGAAGGAAPAYYKFAAAFIMTLPAMLFIFFARRYLVTMWGITL” as the sequence, how does the protein production read?
**A.** failed

**Q.** With “LVVSIRVQGDKRLSSLRRCCALTRYDAHKMSHDAFTVIKNCNTSGIQTEWSPPLTMLFLCATKFSASAP” as the sequence, how does the protein production read?
**A.** failed

**Q.** Which protein production does the source give for “LYLAGIGQYAALLEAGFARARSAEETVRLLVTSYIDWVVANPDWARFILHSRGRVEAGELGERLRADNQAHFARIHAALAGYRAEGLFREMPDDCFASVVIGPAHDLARQWLAGRTRVALADCRELLAQVAWDSVRAA” here?
**A.** not failed

**Q.** For “MAAASPLRDCQAWKDARLPLSTTSNEACKLFDATLTQYVKWTNDKSLGGIEGCLSKLKAADPTFVMGHAMATGLVLIGTGSSVKLDKELDLAVKTMVEISRTQPLTRREQLHVSAVETFANGNFPKACELWEQILQDHPTDMLALKFSHDAYFYLGYQEQMRDSVARIYPFWTPDIPLSSYVKGIYSFGLMETNFYDQAEKLAKEALSINPTDAWSVHTVAHIHEMKAEIKDGLEFMQHSETFWKDSDMLACHNYWHWALYLIEKGEYEAALTIYDTHILPSLQANDAMLDVVDSCSMLYRLQMEGVSVGQRWQDVLPVARKHSRDHILLFNDAHFLMASLGAHDPQTTQELLTTLRDASESPGENCQHLLARDVGLPLCQALVEAEDGNPDRVLELLLPIRYRIVQLGGSNAQRDVFNQLLIHAALNCTSSVHKNVARSLLMERDALKPNSPLTERLIRKAATVHLMQ”, which protein production is on record?
**A.** failed

**Q.** Which protein production does the source give for “MAACPELVDATFAILASGWHSTAVEVGGRWVFKFPRGAEAEAALLREAAVLRLVRPAVSLPVPAPQVFAGPPLFSRHEKLPGGYLLGEDYRRLDEPARQAVGDALGRFYAELHRLPPARMRAVGALPVRPWESPAAMRRRALPLLPAAWRERAERLVREYAKLPADPLGSIFGFFDGHGWNMAFDSEAGRLNGVYDFADAGIGPLHQEFIYSAFIDADLTERIVAAYERFSGRRLERRRIALLTAAHRLSELAELADEPRHLPDMLAGALDGLALAEAQGLA” here?
**A.** failed

**Q.** Which protein production does the source give for “MAAILISLIGKYGMNGIFIATFMAGIFLLLAGIFRLGNLISLIPSPVITGFTSGIAIIIASGQIKNFFGIEHFTGSFFDLMKFISGLHIDYPSTIIGLLTILLMIFYPKSWGKKFPASLLAILLSTLAVLALKLDIPLVGKIPTTLIPQAHLRLTELNPQDMKTLLIPAISITVLGMTESLLCGASAGRATNHPMDNNQELVAQGIGNIFIPFFGGIPATAAIARTSVAIKAGAQTRLTGIIHALILLLSMFLFAPFMTHIPLSALAGVLIMTAVRMNEWEAIRFLFKNKLKSGIIEFFVTMIITVIFDLSTAILAGIVVGFLLFIVKISQIEINSSQIEPERISQNHHEVFTDWTVIYISGPLFFLNSSKLKQAIDELPANTNAVLSLRGVPMIDVTSIKLLIDIYSIFHKEERQIVFASMNPKLKESFKRTGLISMVGEEAIYPSVNEFLLDLVDKNK” here?
**A.** failed

**Q.** With “MAAKKPLFEVIASKIKDSINRDEYKTGMLMPNETALQEIYSSSRTTIRRAVDLLVEEGLVVRKNGVGLYVQPKLTAQNILEMTGVMKNDTNENLKKDIKDFYIRKAGKFYAEIFGMKENELVYSIKFVQKSEHGATLDRLILPLGLYPDLQAKDFQIINIIELVNSGKYKLFELEQELQLILAGNEQIKNMHLNENDPVFKLSSVFYAENDMPIAIQYHYEDAESTKYVVDFN” as the sequence, how does the protein production read?
**A.** not failed

**Q.** For “MAAKTMDFAGPAVSTGLGGLGPTRVSGAALMATLLFLGAPLLFAGNMLAARMMQGVLPPFTLASARWALAALVLLPFVRRELFGQRRAAPGRWRALVLPAVLGGALSVGPQYWAAHFTSAGNIALVFAMTPLLVALLDRLAGGARLGAPALAGMGLAIAGIATASFQGSLARLLAFQINPGDLLAGLAALAWAGYTVATRRPRAGLSGLALLWGVAAGGALTLAPAAAVEWLVLGVPSLSREAVLGVAFLAIVPSIGAYLAYGRLIGLVGPVVAGTSMYLIPLYALALGAMVLGEALGRYHLAAAALVIGGVALSRWRGAAKVCG”, which protein production is on record?
**A.** failed

**Q.** Which protein production does the source give for “MAAKTMRKAEELVEKAMKGNDASHDAWHVWRVRDLALSIAREEGLSSNSDSMEIVELAALLHDIGDYKYIRDPSEEKLVENFLDDEGIEETKKTKILTIINGMGFKDELAGVALCESLPEFGVVQDADRLDAIGAIGIARCFTFGGSRNRVLHDPEIKPRTELTKEQYIKREEQTTINHFHEKLLKLKKLMKTEAGKRRAEKRHKFMEEYLKEFYEEWDGST” here?
**A.** failed

**Q.** For “MAALGLGTYGAHVFKPENPSYKQVWQTASLYHLVHTAALVSAPSTKYPNIFGGLLTAGIVAFSGTCYMVALREDRKFSTLAPFGGFAFIAAWATLLF”, which protein production is on record?
**A.** failed

**Q.** For “MAAPLCVKVEFGGGAELLFDGVKKHQVALPGQEEPWDIRNLLVWIKKNLLKERPELFIQGDSVRPGILVLINDADWELLGELDYQLQDQDSILFISTLHGG”, which protein production is on record?
**A.** not failed
